From patent US9980982B2, “HE4 based therapy for malignant disease” (Women & Infants Hospital of Rhode Island, priority 2011, dated 2018)
Entries after “also recorded” stand apart in the source; their conditions may differ.

How the values were obtained:
SKOV-3 cells = experiment: MTS cell viability assay, parental/wild-type SKOV-3 cells; type: cell-based, Human; conditions: for effect of recombinant HE4 on cisplatin efficacy in SKOV-3 cells: combination or pre-treatment with HE4 (4 ng/mL in FIG. 10B) plus cisplatin
Description: Cell growth and viability of cell lines (complete medium, 24 h incubation) was determined by the CellTiter 96® AQueous One Solution Assay (Promega Corp, Madison, Wis.) following the manufacturer's recommendations with modifications (Lange T S et al., 2008 PLOS One, 3(5):e2303). Experiments are expressed as the mean of triplicate determinations (X±SD) of a representative experiment in OD (cell growth) or % of absorbance by drug-treated versus untreated cells [=100%] (cell viability). Cisplatin (CDDP), paclitaxel, doxorubicin and camptothecin (CPT) were purchased from (Sigma Aldrich, St. Louis, Mo.).
To analyze the potential biological relevance of elevated HE4 production for ovarian cancer cells the efficacy of commonly used anticancer drugs was examined in a viability assay (FIG. 5). SKOV-3 clones or parental cells were treated with cisplatin, paclitaxel, doxorubicin, or camptothecin for 24 h in various concentrations as indicated and the cytotoxicity evaluated.

CaOV-3 = experiment: Cell viability, exogenous recombinant HE4, CaOV-3; type: cell-based, Human

B1: recombinant HE4: exogenous recombinant human epididymal secretory protein E4 (protein)
chain: EKTGVCPELQADQNCTQECVSDSECADNLKCCSAGCATFCSLPNDKEGSCPQVNINFPQLGLCRDQCQVDSQCPGQMKCCRNGCGKVSCVTPNF
effect of recombinant HE4 on cisplatin efficacy in SKOV-3 cells (SKOV-3 cells): enhanced the efficacy of cisplatin; also recorded: synergized or enhanced suppression of cell-viability
effect of recombinant HE4 on cisplatin efficacy in SKOV-3 cells (SKOV-3 cells; listed as HE4): enhanced the efficacy of cisplatin
effect on viability of SKOV-3 cells (SKOV-3 cells; exogenous recombinant HE4): suppressed the viability of SKOV-3 cells
IC50 (SKOV-3 cells; proliferating ovarian cancer cells (SKOV-3), read-out: IC50, reduction of cell viability): 1 to 8 µM
effect on viability of CaOV-3 (CaOV-3): suppressed the viability
